In US12269859B2, “Synthetic immune receptors and methods of use thereof” (Angeles Therapeutics, Inc., priority 2016, dated 2025):

Tested on: target antigen-expressing cell line
Test: Jurkat NFAT-GFP assay, coculture with target cell lines expressing the respective target antigen (summary Table 10A)
Format: cell-based, human
Parameters: key: The signs +/−, +, 2+ etc. after the name of the cell lines indicate the relative degree of positivity on the Jurkat-NFAT-GFP assay as measured by the % GFP positive cells; +: relative degree of positivity on the Jurkat-NFAT-GFP assay as measured by the % GFP positive cells; 2+: relative degree of positivity on the Jurkat-NFAT-GFP assay as measured by the % GFP positive cells
Details: relative % GFP positive cells; for NFAT-GFP ASSAY Positive Cell lines: NALM6: SIR-expressing Jurkat-NFAT-GFP cells cocultured with NALM6; for NFAT-GFP ASSAY Positive Cell lines: RAJI: SIR-expressing Jurkat-NFAT-GFP cells cocultured with RAJI; for NFAT-GFP ASSAY Positive Cell lines: HEL: SIR-expressing Jurkat-NFAT-GFP cells cocultured with HEL
Summary of the method: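 Readout is % GFP+ cells by FACS, graded +/− to 2+ relative to parental reporter cells. Jurkat-NFAT-GFP cells stably transduced with SIR constructs (puromycin-selected) were mixed with target-antigen-expressing cell lines at roughly 1:2 effector:target and cocultured ~4–18 h.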

Molecule | NFAT-GFP ASSAY Positive Cell lines: NALM6 | NFAT-GFP ASSAY Positive Cell lines: RAJI | NFAT-GFP ASSAY Positive Cell lines: HEL | NFAT-GFP ASSAY Positive Cell lines: L363 (SIR-expressing Jurkat-NFAT-GFP cells cocultured with L363) | NFAT-GFP ASSAY Positive Cell lines: U266 (SIR-expressing Jurkat-NFAT-GFP cells cocultured with U266)
010417-C03 (protein) MALPVTALLLPLALLLHAARPLEGKPIPNPLLGLDSTGSGEDLKNVFPPEVAVFEPSKAEIAHTQKATLVCLATGFYPDHVELSWWVNGKEVHSGVCTDPQPLKEQPALNDSRYCLSSRLRVSATFWQNPRNHFRCQVQFYGLSENDEWTQDRAKPVTQIVSAEAWGRADCGITSASYHQGVLSATILYEILLGKATLYAVLVSALVLMAMVKRKDSRGRAKRSGSGATNFSLLKQAGDVEENPGPTSTMALPVTALLLPLALLLHAARPDEIVLTQSPATLSLSPGERATLSCSASSSVSYMHWYQQKPGQAPRLLIYDTSKLASGIPARFSGSGSGTDFTLTISSLEPEDVAVYYCFQGSVYPFTFGQGTKLEIKRGGGGSGGGGSGGGGSQVQLQESGPGLVKPSQTLSLTCTVSGGSISTSGMGVGWIRQHPGKGLEWIGHIWWDDDKRYNPALKSRVTISVDTSKNQFSLKLSSVTAADTAVYYCARMELWSYYFDYWGQGTLVTVSSTREAAAKDIQMTQSPSSLSASVGDRVTITCKASQDVGIAVAWYQQKPGKVPKLLIYWASTRHTGVPDRFSGSGSGTDFTLTISSLQPEDVATYYCQQYSSYPYTFGQGTKVEIKGGGGSGGGGSGGGGSEVQLVESGGGLVQPGGSLRLSCAASGFDFSRYWMSWVRQAPGKGLEWIGEINPDSSTINYAPSLKDKFIISRDNAKNSLYLQMNSLRAEDTAVYYCARPDGNYWYFDVWGQGTLVTVSSTREQKLISEEDGSGIQNPDPAVYQLRDSKSSDKSVCLFTDFDSQTNVSQSKDSDVYITDKCVLDMRSMDFKSNSAVAWSNKSDFACANAFNNSIIPEDTFFPSSDVPCDVKLVEKSFETDTNLNFQNLSVIGFRILLLKVAGFNLLMTLRLWSSRAKRSGSGVKQTLNFDLLKLAGDVESNPGPSRGHMTEYKPTVRLATRDDVPRAVRTLAAAFADYPATRHTVDPDRHIERVTELQELFLTRVGLDIGKVWVADDGAAVAVWTTPESVEAGAVFAEIGPRMAELSGSRLAAQQQMEGLLAPHRPKEPAWFLATVGVSPDHQGKGLGSAVVLPGVEAAERAGVPAFLETSAPRNLPFYERLGFTVTADVEVPEGPRTWCMTRKPGA | (+/−) | RAJI (+), NALM6 | – | – | –
010417-H05 (protein) MALPVTALLLPLALLLHAARPLEGKPIPNPLLGLDSTGSGEDLKNVFPPEVAVFEPSKAEIAHTQKATLVCLATGFYPDHVELSWWVNGKEVHSGVCTDPQPLKEQPALNDSRYCLSSRLRVSATFWQNPRNHFRCQVQFYGLSENDEWTQDRAKPVTQIVSAEAWGRADCGITSASYHQGVLSATILYEILLGKATLYAVLVSALVLMAMVKRKDSRGRAKRSGSGATNFSLLKQAGDVEENPGPTSMALPVTALLLPLALLLHAARPEIVLTQSPDFQSVTPKEKVTITCRASESVDTFGISFMNWFQQKPDQSPKLLIHAASNQGSGVPSRFSGSGSGTDFTLTINSLEAEDAATYYCQQSKEVPFTFGGGTKVEIKGGGGSGGGGSGGGGSEVQLVESGGGLVQPGGSLRLSCAASGFTFSSSWMNWVRQAPGKGLEWVGRIYPGDGDTNYNGKFKGRFTISRDDSKNSLYLQMNSLKTEDTAVYYCARSGFITTVLDFDYWGQGTLVTVSSTREQKLISEEDGSGIQNPDPAVYQLRDSKSSDKSVCLFTDFDSQTNVSQSKDSDVYITDKCVLDMRSMDFKSNSAVAWSNKSDFACANAFNNSIIPEDTFFPSSDVPCDVKLVEKSFETDTNLNFQNLSVIGFRILLLKVAGFNLLMTLRLWSSRAKRSGSGVKQTLNFDLLKLAGDVESNPGPSRGHMTEYKPTVRLATRDDVPRAVRTLAAAFADYPATRHTVDPDRHIERVTELQELFLTRVGLDIGKVWVADDGAAVAVWTTPESVEAGAVFAEIGPRMAELSGSRLAAQQQMEGLLAPHRPKEPAWFLATVGVSPDHQGKGLGSAVVLPGVEAAERAGVPAFLETSAPRNLPFYERLGFTVTADVEVPEGPRTWCMTRKPGA | (+) | RAJI (2+), NALM6 | – | – | –
010417-E08 (protein) MALPVTALLLPLALLLHAARPLEGKPIPNPLLGLDSTGSGEDLKNVFPPEVAVFEPSKAEIAHTQKATLVCLATGFYPDHVELSWWVNGKEVHSGVCTDPQPLKEQPALNDSRYCLSSRLRVSATFWQNPRNHFRCQVQFYGLSENDEWTQDRAKPVTQIVSAEAWGRADCGITSASYHQGVLSATILYEILLGKATLYAVLVSALVLMAMVKRKDSRGRAKRSGSGATNFSLLKQAGDVEENPGPTSTMALPVTALLLPLALLLHAARPDEIVLTQSPATLSLSPGERATLSCSASSSVSYMHWYQQKPGQAPRLLIYDTSKLASGIPARFSGSGSGTDFTLTISSLEPEDVAVYYCFQGSVYPFTFGQGTKLEIKRGGGGSGGGGSGGGGSQVQLQESGPGLVKPSQTLSLTCTVSGGSISTSGMGVGWIRQHPGKGLEWIGHIWWDDDKRYNPALKSRVTISVDTSKNQFSLKLSSVTAADTAVYYCARMELWSYYFDYWGQGTLVTVSSTREAAAKQIVLTQSPAIMSASPGEKVTISCSASSSVSYMYWYQQKPGSSPKPWIYRTSNLASGVPARFSGSGSGTSYSLTISNMEAEDAAAYYCQQYHSYPTTFGGGTKLEVKGGGGSGGGGSGGGGSEVQLVESGGGLVQPKGSLKLSCAASGFSFNTYAMNWVRQAPGKGLEWIAHIRSKSNNFATYYADSVKDRFSISRDASENILFLQMNNLKTEDTAMYYCVRQGGDFPMDYWGQGTSVTVSSTREQKLISEEDGSGIQNPDPAVYQLRDSKSSDKSVCLFTDFDSQTNVSQSKDSDVYITDKCVLDMRSMDFKSNSAVAWSNKSDFACANAFNNSIIPEDTFFPSSDVPCDVKLVEKSFETDTNLNFQNLSVIGFRILLLKVAGFNLLMTLRLWSSRAKRSGSGVKQTLNFDLLKLAGDVESNPGPSRGHMTEYKPTVRLATRDDVPRAVRTLAAAFADYPATRHTVDPDRHIERVTELQELFLTRVGLDIGKVWVADDGAAVAVWTTPESVEAGAVFAEIGPRMAELSGSRLAAQQQMEGLLAPHRPKEPAWFLATVGVSPDHQGKGLGSAVVLPGVEAAERAGVPAFLETSAPRNLPFYERLGFTVTADVEVPEGPRTWCMTRKPGA | (+), HEL (+) | RAJI (+), NALM6 | (+), HEL (+) | – | –
063016-E01 (protein, Synthetic Immune Receptor (SIR)) MALPVTALLLPLALLLHAARPDEIVLTQSPATLSLSPGERATLSCSASSSVSYMHWYQQKPGQAPRLLIYDTSKLASGIPARFSGSGSGTDFTLTISSLEPEDVAVYYCFQGSVYPFTFGQGTKLEIKRGGGGSGGGGSGGGGSQVQLQESGPGLVKPSQTLSLTCTVSGGSISTSGMGVGWIRQHPGKGLEWIGHIWWDDDKRYNPALKSRVTISVDTSKNQFSLKLSSVTAADTAVYYCARMELWSYYFDYWGQGTLVTVSSLEGKPIPNPLLGLDSTGSGEDLKNVFPPEVAVFEPSEAEISHTQKATLVCLATGFYPDHVELSWWVNGKEVHSGVCTDPQPLKEQPALNDSRYCLSSRLRVSATFWQNPRNHFRCQVQFYGLSENDEWTQDRAKPVTQIVSAEAWGRADCGFTSESYQQGVLSATILYEILLGKATLYAVLVSALVLMAMVKRKDSRGRAKRSGSGATNFSLLKQAGDVEENPGPTSATMALPVTALLLPLALLLHAARPDVQLQESGPGLVKPSQSLSLTCTVTGYSITSDYTWNWIRQFPGNKLEWMGYITYSGSTSYNPSLKSRNSITRDTSKNQFFLQLNSVTTEDTATYYCARLGRRYTMDYWGQGTSVTVSSGGGGSGGGGSGGGGSDIQMTQSSSSFSVSLGDRVTITCMASEDIYIRLAWYQQKPGNAPRLLISAATSLETGVPSRFSGSGSGKDYTLSITSLQTEDVGTYYCQQYWSSPWTFGGGTKLEINTREQKLISEEDGSGIQNPDPAVYQLRDSKSSDKSVCLFTDFDSQTNVSQSKDSDVYITDKCVLDMRSMDFKSNSAVAWSNKSDFACANAFNNSIIPEDTFFPSPESSCDVKLVEKSFETDTNLNFQNLSVIGFRILLLKVAGFNLLMTLRLWSSRAKRSGSGVKQTLNFDLLKLAGDVESNPGPSRGHMTEYKPTVRLATRDDVPRAVRTLAAAFADYPATRHTVDPDRHIERVTELQELFLTRVGLDIGKVWVADDGAAVAVWTTPESVEAGAVFAEIGPRMAELSGSRLAAQQQMEGLLAPHRPKEPAWFLATVGVSPDHQGKGLGSAVVLPGVEAAERAGVPAFLETSAPRNLPFYERLGFTVTADVEVPEGPRTWCMTRKPGA | – | 2+ | +/− | – | –
030217-A05 (protein) MALPVTALLLPLALLLHAARPDEIVLTQSPATLSLSPGERATLSCSASSSVSYMHWYQQKPGQAPRLLIYDTSKLASGIPARFSGSGSGTDFTLTISSLEPEDVAVYYCFQGSVYPFTFGQGTKLEIKRGGGGSGGGGSGGGGSQVQLQESGPGLVKPSQTLSLTCTVSGGSISTSGMGVGWIRQHPGKGLEWIGHIWWDDDKRYNPALKSRVTISVDTSKNQFSLKLSSVTAADTAVYYCARMELWSYYFDYWGQGTLVTVSSLEGKPIPNPLLGLDSTGSGEDLKNVFPPEVAVFEPSKAEIAHTQKATLVCLATGFYPDHVELSWWVNGKEVHSGVCTDPQPLKEQPALNDSRYCLSSRLRVSATFWQNPRNHFRCQVQFYGLSENDEWTQDRAKPVTQIVSAEAWGRADCGITSASYHQGVLSATILYEILLGKATLYAVLVSALVLMAMVKRKDSRGRAKRSGSGATNFSLLKQAGDVEENPGPTSTMALPVTALLLPLALLLHAARPDIQMTQSPSSLSASVGDRVTITCKASQDVGIAVAWYQQKPGKVPKLLIYWASTRHTGVPDRFSGSGSGTDFTLTISSLQPEDVATYYCQQYSSYPYTFGQGTKVEIKGGGGSGGGGSGGGGSEVQLVESGGGLVQPGGSLRLSCAASGFDFSRYWMSWVRQAPGKGLEWIGEINPDSSTINYAPSLKDKFIISRDNAKNSLYLQMNSLRAEDTAVYYCARPDGNYWYFDVWGQGTLVTVSSTREQKLISEEDGSGIQNPDPAVYQLRDSKSSDKSVCLFTDFDSQTNVSQSKDSDVYITDKCVLDMRSMDFKSNSAVAWSNKSDFACANAFNNSIIPEDTFFPSSDVPCDVKLVEKSFETDTNLNFQNLSVIGFRILLLKVAGFNLLMTLRLWSSRAKRSGSGVKQTLNFDLLKLAGDVESNPGPSRGHMTEYKPTVRLATRDDVPRAVRTLAAAFADYPATRHTVDPDRHIERVTELQELFLTRVGLDIGKVWVADDGAAVAVWTTPESVEAGAVFAEIGPRMAELSGSRLAAQQQMEGLLAPHRPKEPAWFLATVGVSPDHQGKGLGSAVVLPGVEAAERAGVPAFLETSAPRNLPFYERLGFTVTADVEVPEGPRTWCMTRKPGA | (+/−), L363 (+/−), | RAJI (+), NALM6 | – | (+/−), L363 (+/−), | U266 (+/−)
